From patent publication US11306156 come the findings set out here.

For assay [1], the target named is tissue factor (TF) antigen (UniProt P13726). The experiment in a line: SPR, His-captured Fab, TF as analyte, 1:1 fit. For orientation: SPR reads the build-up and loss of mass on a sensor chip optically.
Assay [2] has the same target. The experiment in a line: SPR, His-captured Fab, TF as analyte; against wild-type D3H44 Fab.
For assay [3] the target is unchanged. The experiment in a line: SPR (ProteOn XPR36), Fab captured on anti-penta-His surface, TF as analyte; reference is the wild-type D3H44 Fab.
The target is the same in assay [4]. The experiment in a line: SPR (ProteOn XPR36), Fab captured on anti-penta-His surface, TF as analyte, 1:1 fit.
For assay [5] the target is unchanged. The experiment in a line: SPR (ProteOn XPR36), His-tagged Fab captured on anti-penta His, TF as analyte, 1:1 fit.
Assay [6] has the same target. The experiment in a line: SPR (ProteOn XPR36), His-tagged Fab captured on anti-penta His, TF as analyte; against wild-type D3H44 Fab.
Assay [7] shares this target. The experiment in a line: SPR (ProteOn XPR36), Fab captured by His tag on anti-penta-His surface, TF injected as analyte, 1:1 fit.
Assay [8] has the same target. The experiment in a line: SPR (ProteOn XPR36), Fab captured by His tag on anti-penta-His surface, TF injected as analyte; against wild-type D3H44 Fab.

Chain of tissue factor (TF) antigen (P13726 33-251 limits assumed): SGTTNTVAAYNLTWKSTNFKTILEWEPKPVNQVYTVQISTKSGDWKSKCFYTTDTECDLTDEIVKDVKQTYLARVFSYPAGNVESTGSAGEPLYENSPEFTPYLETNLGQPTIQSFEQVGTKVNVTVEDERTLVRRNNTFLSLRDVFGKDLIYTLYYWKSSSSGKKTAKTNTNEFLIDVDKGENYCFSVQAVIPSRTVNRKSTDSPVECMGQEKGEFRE

As usually defined, the Kd is the equilibrium constant for the complex coming apart. Low values mean tighter binding, high ones weaker binding. In assay [1], “D3H44 Fab heterodimer H1L1 of LCCA Set # 9052, 9051 and 9050 (H1 A139G_F174V_V190A; L1 S131T_L135F_S176F_T178F)” registered a dissociation constant (Kd) of 0.14 nM. Moreover, the Change in median values of KD compared to wild type (-(log(KD design)-log(KD wt))) in assay [2] was 0.06 log.
“D3H44 Fab heterodimer H1L1 of LCCA Set # 9062 and 9063 (H1 A139W_S188L; L1 F116A_L135V)” showed a Kd in assay [1] of 0.17 nM. In assay [2], this substance showed a Change in median values of KD compared to wild type (-(log(KD design)-log(KD wt))) of -0.02 log.
For “D3H44 Fab heterodimer H1L1 of LCCA Set # 9071 (H1 F174V; L1 S131T_S176F_T178F)”, in that order: 0.21 nM and -0.12 log.
For “D3H44 Fab heterodimer H1L1 of LCCA Set # 9099 (H1 L124A_Q179K; L1 Q124E_V133W_S176T_T178L_T180E)”, in that order: 0.19 nM and -0.09 log.
In turn, “D3H44 Fab heterodimer H1L1 of LCCA Set # 9731 (H1 L143K; L1 Q124E_V133D)” came in with a Kd in assay [1] of 0.28 nM. Further, in assay [2], the Change in median values of KD compared to wild type (-(log(KD design)-log(KD wt))) is -0.26 log.
The matching figures for “D3H44 Fab heterodimer H1L1 of LCCA Set # 9732 and 9733 (H1 L143K; L1 Q124E_V133D_S176L)”: 0.28 nM and -0.25 log.
For “D3H44 Fab heterodimer H1L1 of LCCA Set # 9769, 9767, 9763, 9759, 9761, 9760 and 9773 (H1 Q179K; L1 Q124E_Q160E_T180E)”, in assay [1], the Kd came out at 0.32 nM. In assay [2], this substance showed a Change in median values of KD compared to wild type (-(log(KD design)-log(KD wt))) of -0.31 log.
In assay [3], “D3H44 Fab heterodimer H1L1 of LCCA set 9181 (H1 L124E_L143D_K145M; L1 Q124K_V133G_S176R_T178K)” returned a Change in median values of KD of h1l1 Fab heterodimer compared to wild type (-(log(KD design)-log(KD wt))) of -0.15. This substance also registered a Kd in assay [4] of 0.22 nM.
Substance “D3H44 Fab heterodimer H1L1 of LCCA set 9188 (H1 L124E_L143D_K145M; L1 Q124K_V133G_S176R_T178R)” registered a Change in median values of KD of h1l1 Fab heterodimer compared to wild type (-(log(KD design)-log(KD wt))) in assay [3] of 0.09. Moreover, in assay [4], the Kd stood at 0.13 nM.
In assay [3], “D3H44 Fab heterodimer H1L1 of LCCA set 9226 (H1 L124E_L143D_K145T; L1 Q124K_V133G_S176R_T178R)” showed a Change in median values of KD of h1l1 Fab heterodimer compared to wild type (-(log(KD design)-log(KD wt))) of -0.02. Also, in assay [4], the Kd is 0.16 nM.
“D3H44 Fab heterodimer H1L1 of LCCA set 9361 (H1 L124R_D146N_Q179K; L1 V133G_S176D_T178E_T180E)” displayed a Change in median values of KD of h1l1 Fab heterodimer compared to wild type (-(log(KD design)-log(KD wt))) in assay [3] of -0.01. Further, in assay [4], the Kd is 0.16 nM.
In the case of “D3H44 Fab heterodimer H1L1 of LCCA sets 9257 and 9259 (H1 L124E_L143E_K145M; L1 Q124K_V133G_S176R_T178K)”, the Change in median values of KD of h1l1 Fab heterodimer compared to wild type (-(log(KD design)-log(KD wt))) in assay [3] is -0.19. The same substance registered a dissociation constant Kd in assay [4] of 0.24 nM.
In assay [3], “D3H44 Fab heterodimer H1L1 of LCCA sets 9523 and 9524 (H1 L124R_S186R; L1 V133G_S176D_T178D)” gave a Change in median values of KD of h1l1 Fab heterodimer compared to wild type (-(log(KD design)-log(KD wt))) of -0.1. Further, the Kd in assay [4] amounted to 0.2 nM.
“D3H44 Fab heterodimer H1L1 of LCCA sets 9536 and 9526 (H1 L124R_S186R; L1 V133G_S176D_T178D_T180E)” registered a Change in median values of KD of h1l1 Fab heterodimer compared to wild type (-(log(KD design)-log(KD wt))) in assay [3] of -0.04. The Kd in assay [4] came out at 0.17 nM.
In assay [5], “D3H44 Fab heterodimer, H1 D146G_H172R_Q179K / L1 Q38E_Q124E_Q160E_T180E (H1L1 Fab of LCCA Set # 9064)” yielded a Kd of 0.17 nM. The same substance returned a Change in median values of KD of h1|1 Fab heterodimer compared to wild type (-(log(KD design)-log(KD wt))) in assay [6] of -0.05.
In the case of “D3H44 Fab heterodimer, H1 D146G_Q179K / L1 Q38E_Q124E_Q160E_T180E (H1L1 Fab of LCCA Set # 9065)”, in assay [5], the Kd was 0.18 nM. In assay [6], this substance yielded a Change in median values of KD of h1|1 Fab heterodimer compared to wild type (-(log(KD design)-log(KD wt))) of -0.05.
“D3H44 Fab heterodimer, H1 H172R_S186R / L1 Q38E_Q124E_Q160E_T180E (H1L1 Fab of LCCA Set # 9075)” yielded a Kd in assay [5] of 0.17 nM. The same substance yielded a Change in median values of KD of h1|1 Fab heterodimer compared to wild type (-(log(KD design)-log(KD wt))) in assay [6] of -0.03.
With “D3H44 Fab heterodimer, H1 L124E_L143D_K145M / L1 Q124K_V133G_Q160K_S176R (H1L1 Fab of LCCA Set # 9170, 9171 and 9172)”, in assay [5], the Kd is 0.27 nM. This substance also returned a Change in median values of KD of h1|1 Fab heterodimer compared to wild type (-(log(KD design)-log(KD wt))) in assay [6] of -0.24.
Substance “D3H44 Fab heterodimer, H1 L124E_L143E_K145M / L1 Q124K_V133G_Q160K_S176R (H1L1 Fab of LCCA Set # 9248 and 9249)” yielded a Kd in assay [5] of 0.28 nM. The substance also had a Change in median values of KD of h1|1 Fab heterodimer compared to wild type (-(log(KD design)-log(KD wt))) in assay [6] of -0.26.
For the substance “D3H44 Fab heterodimer, H1 L124R_S186R / L1 Q124E_V133G_S176D_T178D_T180E (H1L1 Fab of LCCA Set # 9513)”, in assay [5], the Kd amounted to 0.26 nM. Also, in assay [6], the Change in median values of KD of h1|1 Fab heterodimer compared to wild type (-(log(KD design)-log(KD wt))) was -0.21.
On to “D3H44 Fab heterodimer, H1 L143K_D146G / L1 Q124E_V133D (H1L1 Fab of LCCA Set # 9734)”, for which the Kd in assay [5] amounted to 0.26 nM. The substance further yielded a Change in median values of KD of h1|1 Fab heterodimer compared to wild type (-(log(KD design)-log(KD wt))) in assay [6] of -0.22.
In turn, “D3H44 H1L1 Fab heterodimer of LCCA Set # 9103 (H1 L124A_S186K, L1 Q124E_V133W_T180E)” displayed a Kd in assay [7] of 0.15 nM. The same substance showed a change in median KD compared to wild type, -(log(KD design)-log(KD wt)) in assay [8] of 0.02 log.
For “D3H44 H1L1 Fab heterodimer of LCCA Set # 9116 (H1 L124E_A139W, L1 F116A_V133G_L135V_S176R)”, the Kd in assay [7] was determined as 0.16 nM. Moreover, the change in median KD compared to wild type, -(log(KD design)-log(KD wt)) in assay [8] was -0.02 log.
Take “D3H44 H1L1 Fab heterodimer of LCCA Set # 9122 (H1 L124E_H172T, L1 V133G_S174R_S176R)”: the Kd in assay [7] was found to be 0.13 nM. In assay [8], this substance had a change in median KD compared to wild type, -(log(KD design)-log(KD wt)) of 0.1 log.
For the substance “D3H44 H1L1 Fab heterodimer of LCCA Set # 9575 (H1 L143D_K145T_Q179E, L1 T178R)”, the Kd in assay [7] came to 0.28 nM. In assay [8], the change in median KD compared to wild type, -(log(KD design)-log(KD wt)) is -0.25 log.
The substance “D3H44 H1L1 Fab heterodimer of LCCA Sets # 6054, 9338 and 9339 (H1 L124R, L1 V133G_S176D_T178D)” gave a Kd in assay [7] of 0.24 nM. The change in median KD compared to wild type, -(log(KD design)-log(KD wt)) in assay [8] is -0.18 log.
Consider “D3H44 H1L1 Fab heterodimer of LCCA Sets # 9092, 9091 and 9090 (H1 L124A_L143F_Q179K, L1 Q124E_V133W_S176T_T178E_T180E)”, for which, in assay [7], the dissociation constant (Kd) stood at 0.16 nM. The change in median KD compared to wild type, -(log(KD design)-log(KD wt)) in assay [8] was -0.02 log.
In the case of “D3H44 H1L1 Fab heterodimer of LCCA Sets # 9486, 9487, 9488 and 9489 (H1 L124R_S186K, L1 V133G_S176D_T178E_T180E)”, the Kd in assay [7] stood at 0.23 nM. This substance had a change in median KD compared to wild type, -(log(KD design)-log(KD wt)) in assay [8] of -0.17 log.
“D3H44 H1L1 Fab heterodimer of LCCA Sets # 9743 and 9744 (H1 L143R, L1 Q124E_V133E_S176L)” registered a Kd in assay [7] of 0.28 nM. Besides, in assay [8], the change in median KD compared to wild type, -(log(KD design)-log(KD wt)) was -0.25 log.
